The test deals with T1, HLA-A*24.
T1 construct: Monomers captured on streptavidin plates; also called peptide-receptive MHC molecules; MHC complexes
Briefly: UV peptide-exchange ELISA (anti-b2m); yield grade ++ = >20%. From the text:
Candidate peptides for T cell based therapies according to the present invention were further tested for their MHC binding capacity (affinity). The individual peptide-MHC complexes were produced by UV-ligand exchange, where a UV-sensitive peptide is cleaved upon UV-irradiation, and exchanged with the peptide of interest as analyzed. Only peptide candidates that can effectively bind and stabilize the peptide-receptive MHC molecules prevent dissociation of the MHC complexes. To determine the yield of the exchange reaction, an ELISA was performed based on the detection of the light chain (p2m) of stabilized MHC complexes. The assay was performed as generally described in Rodenko et al. (Rodenko et al., 2006)
96 well MAXISorp plates (NUNC) were coated over night with 2 ug/ml streptavidin in PBS at room temperature, washed 4× and blocked for 1 h at 37° C. in 2% BSA containing blocking buffer. Refolded HLA-A*02:01/MLA-001 monomers served as standards, covering the range of 15-500 ng/ml. Peptide-MHC monomers of the UV-exchange reaction were diluted 100-fold in blocking buffer. Samples were incubated for 1 h at 37° C., washed four times, incubated with 2 ug/ml HRP conjugated anti-β2m for 1h at 37° C., washed again and detected with TMB solution that is stopped with […]. Absorption was measured at 450 nm. Candidate peptides that show a high exchange yield (preferably higher than 50%, most preferred higher than 75%) are generally preferred for a generation and production of antibodies or fragments thereof, and/or T cell receptors or fragments thereof, as they show sufficient avidity to the MHC molecules and prevent dissociation of the MHC complexes.
For orientation: An ELISA detects its analyte on a solid surface through an enzyme-linked reagent.
RRVTWNVLF (also called RRVTWNVLF) [BTBD17-003] yielded a peptide exchange yield of 20 to 50%.

Regarding MFQFEHIKW (also called MFQFEHIKW) [FBXW10-001], the peptide exchange yield lay within 20 to 50%.

In turn, LQPPWTTVF (also called LQPPWTTVF) [FCRL5-006] showed a peptide exchange yield of 20 to 50%.

On to VYLRIGGF (also called VYLRIGGF) [WNT7A-002], for which the peptide exchange yield fell in the range of 20 to 50%.

Consider TYESVVTGFF (also called TYESVVTGFF) [HAS3-004], for which the peptide exchange yield was in the range of 20 to 50%.

As to KMFPKDFRF (also called KMFPKDFRF) [TTLL6-001], the peptide exchange yield fell in the range of 20 to 50%.

In the case of KYKPVALQCIA (also called KYKPVALQCIA) [HMCN1-009], the peptide exchange yield was 20 to 50%.

Take VYVRPRVF (also called VYVRPRVF) [HMCN1-013]: the peptide exchange yield lay in the range of 20 to 50%.

For IFQHFCEEI (also called IFQHFCEEI) [SMC1B-002], the peptide exchange yield was in the range of 20 to 50%.

As to VGRSPVFLF (also called VGRSPVFLF) [COL11A1-006], the peptide exchange yield was 20 to 50%.

In turn, LFALPDFIF (also called LFALPDFIF) [CXCR3-002] showed a peptide exchange yield of 20 to 50%.

The molecule RHYHSIEVF (also called RHYHSIEVF) [LOXL4-004] gave a peptide exchange yield of 20 to 50%.

RPEKVFVF (also called RPEKVFVF) [COL11A1-005]: the peptide exchange yield lay within 20 to 50%.

In the case of LKSPRLFTF (also called LKSPRLFTF) [BTBD16-001], the peptide exchange yield lay within 20 to 50%.

Regarding YLKSVQLF (also called YLKSVQLF) [RFX8-001], the peptide exchange yield is 20 to 50%.

The molecule FSFSTSMNEF (also called FSFSTSMNEF) [CAPN6-001] gave a peptide exchange yield of 20 to 50%.

In turn, EYNVFPRTL (also called EYNVFPRTL) [MMP13-004] registered a peptide exchange yield of 20 to 50%.

For SIYPHGVTF (also called SIYPHGVTF) [F5-007], the peptide exchange yield is 20 to 50%.

The molecule ASYQQSTSSFF (also called ASYQQSTSSFF) [FAM82A1-001] had a peptide exchange yield of 20 to 50%.

The molecule ALFAVCWAPF (also called ALFAVCWAPF) [QRFPR-002] showed a peptide exchange yield of 20 to 50%.

FLPRAYYRW (also called FLPRAYYRW) [ANO7-001] registered a peptide exchange yield of 20 to 50%.

Regarding SLPGSFIYVF (also called SLPGSFIYVF) [HMCN1-012], the peptide exchange yield was in the range of 20 to 50%.

For the molecule KWFNVRMGFGF (also called KWFNVRMGFGF) [LIN-001], the peptide exchange yield was in the range of 20 to 50%.

The molecule YLPNPSLNAF (also called YLPNPSLNAF) [CYP1A1-003] returned a peptide exchange yield of 20 to 50%.

In turn, INGDLVFSF (also called INGDLVFSF) [CAPN6-002] gave a peptide exchange yield of 20 to 50%.

Consider SYFEYRRLL (also called SYFEYRRLL) [LAMC2-019], for which the peptide exchange yield was in the range of 20 to 50%.

ILQAPLSVF (also called ILQAPLSVF) [FCRL5-005]: the peptide exchange yield is 20 to 50%.

In the case of HQYGGAYNRV (also called HQYGGAYNRV) [DLX5-002], the peptide exchange yield lay within 20 to 50%.

The molecule VFQPNPLF (also called VFQPNPLF) [WISP3-002] displayed a peptide exchange yield of 20 to 50%.

RTLNEIYHW (also called RTLNEIYHW) [FOXP3-001] had a peptide exchange yield of 20 to 50%.

Turning to YQRPDLLLF (also called YQRPDLLLF) [GEN-004], the peptide exchange yield was in the range of 20 to 50%.

For the molecule MLYFAPDLIL (also called MLYFAPDLIL) [PGR-004], the peptide exchange yield is 20 to 50%.

LYMRFVNTHF (also called LYMRFVNTHF) [SPINK2-002] had a peptide exchange yield of 20 to 50%.

The molecule KMLPEASLLI (also called KMLPEASLLI) [NLRP4-004] showed a peptide exchange yield of 20 to 50%.

In the case of TQIITFESF (also called TQIITFESF) [CSF2-001], the peptide exchange yield lay within 20 to 50%.

With AQGSGTVTF (also called AQGSGTVTF) [FCRL3-004], the peptide exchange yield lay within 20 to 50%.

FMVIAGMPLF (also called FMVIAGMPLF) [SLC6A3-001] returned a peptide exchange yield of 20 to 50%.

Consider VTMYLPLLL (also called VTMYLPLLL) [GPR143-001], for which the peptide exchange yield is 20 to 50%.

YTRLVLQF (also called YTRLVLQF) [GABRP-008] had a peptide exchange yield of 20 to 50%.

Consider EVVHTVFLF (also called EVVHTVFLF) [HMCN1-007], for which the peptide exchange yield lay within 20 to 50%.

The molecule MLPQIPFLLL (also called MLPQIPFLLL) [COL10-001] came in with a peptide exchange yield of 20 to 50%.

In turn, TYGEEMPEEI (also called TYGEEMPEEI) [DNAH17-004] came in with a peptide exchange yield of 20 to 50%.

The molecule AYAIPSASLSW (also called AYAIPSASLSW) [HMCN1-005] yielded a peptide exchange yield of 20 to 50%.

For WQNVTPLTF (also called WQNVTPLTF) [MMP16-002], the peptide exchange yield was in the range of 20 to 50%.

In turn, KASKITFHW (also called KASKITFHW) [PTP-038] gave a peptide exchange yield of 20 to 50%.

Consider LYQQSDTWSL (also called LYQQSDTWSL) [KIAA140-001], for which the peptide exchange yield was in the range of 20 to 50%.

DYSKQALSL (also called DYSKQALSL) [LAMC2-018] registered a peptide exchange yield of 20 to 50%.

FFLFIPFF (also called FFLFIPFF) [ADAM2-001] gave a peptide exchange yield of 20 to 50%.

Turning to ELMAHPFLL (also called ELMAHPFLL) [CYP4Z-002], the peptide exchange yield lay within 20 to 50%.

Molecule TIYSLEMKMSF (also called TIYSLEMKMSF) [GLB1L3-001] yielded a peptide exchange yield of 20 to 50%.

In turn, VYPSESTVM (also called VYPSESTVM) [PTP-045] gave a peptide exchange yield of 20 to 50%.

Molecule ALFPMGPLTF (also called ALFPMGPLTF) [LILRA4-003] yielded a peptide exchange yield of 20 to 50%.

On to VHSYLGSPF (also called VHSYLGSPF) [MPL-001], for which the peptide exchange yield lay in the range of 20 to 50%.

As to RQAYSVYAF (also called RQAYSVYAF) [SLC45A3-005], the peptide exchange yield was 20 to 50%.

For the molecule YIANLISCF (also called YIANLISCF) [GLYATL3-001], the peptide exchange yield lay in the range of 20 to 50%.

Consider KYSVAFYSLD (also called KYSVAFYSLD) [LAMA1-008], for which the peptide exchange yield is 20 to 50%.

The molecule VYDTMIEKFA (also called VYDTMIEKFA) [PTP-044] showed a peptide exchange yield of 20 to 50%.

MHRTWRETF (also called MHRTWRETF) [ANO7-004]: the peptide exchange yield lay in the range of 20 to 50%.

For MGKGSISFLF (also called MGKGSISFLF) [PCSK1-001], the peptide exchange yield lay in the range of 20 to 50%.

Molecule CAMPVAMEF (also called CAMPVAMEF) [KBTBD8-003] yielded a peptide exchange yield of 20 to 50%.

Take YTCSRAVSLF (also called YTCSRAVSLF) [OTOG-001]: the peptide exchange yield lay in the range of 20 to 50%.

For the origin of these results see patent US20190352359A1 (IMMATICS BIOTECHNOLOGIES, published 2019).
